Source: patent publication US20020150888A1 (published 2002)
Where two headings read alike, the source gives them in different places.

B1: RANTES (ligand, UniProt P13501 24-91, looked up)
chain: SPYSSDTTPCCFAYIARPLPRAHIKEYFYTSGKCSNPAVVFVTRKNRQVCANPEKKWVREYINSLEMS
B2: MIP-1β (ligand, UniProt P13236 24-92, looked up)
chain: APMGSDPPTACCFSYTARKLPRNFVVDYYETSSLCSQPAVVFQTKRSKQVCADPSESWVQEYVYDLELN
notes: also called MIP-1p
B3: FLAG-tagged 88C receptor (receptor)
chain: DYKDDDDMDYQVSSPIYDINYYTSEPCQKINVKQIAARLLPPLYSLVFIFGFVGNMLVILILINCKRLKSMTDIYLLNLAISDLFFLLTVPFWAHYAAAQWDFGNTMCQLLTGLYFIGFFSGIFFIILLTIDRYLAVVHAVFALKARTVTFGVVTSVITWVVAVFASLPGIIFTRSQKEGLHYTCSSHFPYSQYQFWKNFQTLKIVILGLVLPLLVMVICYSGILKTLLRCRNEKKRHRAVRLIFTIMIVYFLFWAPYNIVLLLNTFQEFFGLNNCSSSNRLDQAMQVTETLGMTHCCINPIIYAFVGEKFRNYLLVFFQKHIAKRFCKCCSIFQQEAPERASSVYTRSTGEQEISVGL

Assays:
[1] = target: FLAG-tagged 88C receptor (human); experiment: competition of unlabelled ligand with 1.5 nM 125I-MIP-1β on HEK-293 cells transfected with FLAG-tagged 88C
[2] = target: FLAG-tagged 88C receptor (human); experiment: cell-based or functional assay
FLAG-tagged 88C receptor [3] = target: B3; experiment: competition of unlabelled ligand with 1.5 nM 125I-MIP-1β on HEK-293 cells transfected with FLAG-tagged 88C
FLAG-tagged 88C receptor [4] = target: B3; experiment: cell-based or functional assay
MIP-1β = target: B2; experiment: equilibrium binding of 125I-MIP-1β to HEK-293 cells transfected with FLAG-tagged 88C, Scatchard analysis

MIP-1α (from UniProt P10147 24-92) (ligand)
IC50 [1]: 7.4 nM
EC50 of inositol phosphate formation (phospholipase C assay, COS-7 cells co-transfected with Gqi5) [2]: 22 nM

B1
IC50 (FLAG-tagged 88C receptor [3]): 6.9 nM
EC50 of inositol phosphate formation (phospholipase C assay, COS-7 cells co-transfected with Gqi5) (FLAG-tagged 88C receptor [4]): 1 nM

B2
IC50 (FLAG-tagged 88C receptor [3]): 7.4 nM
EC50 of inositol phosphate formation (phospholipase C assay, COS-7 cells co-transfected with Gqi5) (FLAG-tagged 88C receptor [4]): 6 nM

B3
Kd (MIP-1β): 1.6 nM
